Data on nine molecules can be found in patent CN117990807A (BEIJING DONGFANG BIOTECH CO LTD; BEIJING JINGYI TAIXIANG …, dated 2024).

Experiment [1] addresses T1, TSLP (人TSLP, thymic stromal lymphopoietin) (human, UniProt Q969D9 29-159, limits assumed).
T1 construct: also called TSLP抗原; 抗原TSLP
Put plainly: ELISA, TSLP coated, goat anti-mouse IgG-HRP. Background: ELISA stands for enzyme-linked immunosorbent assay.

Experiment [2] has as its target T2, 人TSLP-His (human, UniProt Q969D9 29-159, limits assumed).
T2 construct: also called TSLP(Human); not shown: His tag
Briefly: competition ELISA: CRLF2-Fc coated, TSLP-His 10μg/ml plus antibody dilutions, anti-His-HRP.

In experiment [3] the target is T3, 猴TSLP-His (食蟹猴TSLP) (cynomolgus monkey, UniProt A0A7N9CAT7 29-159).
T3 construct: Bought protein; also called TSLP(Cynomolgus); not shown: His tag
Briefly: ELISA, cynomolgus TSLP-His coated, goat anti-human IgG-HRP.

The target of experiment [4] is T4, 鼠TSLP-His (mouse, UniProt Q9JIE6 20-140).
T4 construct: Bought protein; also called TSLP(Mouse); not shown: His tag
T4 sequence (looked up): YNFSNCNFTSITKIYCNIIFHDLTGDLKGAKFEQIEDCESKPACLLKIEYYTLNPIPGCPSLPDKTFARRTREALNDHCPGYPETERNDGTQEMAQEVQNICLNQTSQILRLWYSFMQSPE
Briefly: ELISA, mouse TSLP-His coated.

For experiment [5], the target named is T2, 人TSLP-His. Put plainly: ELISA, TSLP-His coated, goat anti-human IgG-HRP.

As a reminder, the EC50 is the concentration giving half of the maximal effect. Lower therefore signals an effect from little substance. The IC50 is the concentration that inhibits the measured activity by half.

T3 sequence (A0A7N9CAT7 entry or part of it): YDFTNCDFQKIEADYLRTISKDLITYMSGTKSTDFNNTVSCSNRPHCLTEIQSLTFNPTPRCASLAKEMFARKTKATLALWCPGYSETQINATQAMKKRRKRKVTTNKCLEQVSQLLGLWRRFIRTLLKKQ

B1: MA-Ⅲ鼠源抗TSLP单克隆抗体 (murine IgG1/Ck) (antibody, V domains shown)
VH: QVQLQQPGAELVKPGASVKMSCKASGYTFTSYWMHWVKQRPGQGLEWIGVIDPSDSDTTYNQKFKGKATLTVDTSSSTVYMQLSSLTSEDSAVYYCTRSLDGYFDHWGQGTLVTVSA
VL: DIVMTQSPASLSASVGETVTITCRASGNIHNYLAWYQQKQGKSPQLLVYNAKTLADGVPSRFSGSGSGTQYSLKINSLQPEDFGSYYCQHFWSTPWTFGGGTKLEIKA
In experiment [1], B1 returned a half-maximal effective concentration (EC50) of 0.00198 µg/mL. Also, the IC50 in experiment [2] worked out at 2.4 µg/mL.

B2: MA-Ⅳ鼠源抗TSLP单克隆抗体 (murine IgG1/Ck) (antibody, V domains shown)
VH: QVKLEQSGAELVKPGASVKMSCKASGYTFTSYWMHWVKQRPGQGLEWIGVIDPSDSDTTYNQKFKGKATLTVDTSSSTAYMQLSSLTSEDSAVYYCTRSLDGYFDHWGQGTLVTVSA
VL: DIVITQTPASLSASVGETVTITCRASGNIHNYLAWYQQKQGKSPQLLVYNTKTLADGVPSRFSGSGSGTQYSLKINSLQPEDFGSYYCQHFWSTPYTFGGGTKLEIKA
B2: it took 0.00557 µg/mL to reach a half-maximal effect in experiment [1] (EC50). Further, the concentration for half-maximal inhibition (IC50) in experiment [2] was 11.8 µg/mL.

B3: MA-Ⅰ鼠源抗TSLP单克隆抗体 (murine IgG1/Ck) (antibody)
heavy: QVQLEQSGAELVKPGASVKMSCKASGYTFTSYWMHWVKQRPGQGLEWIGLIDPSDSDTTYNQKFKGKATLTVDTSSSTAYMQLGSLTSEDSAVYYCSRSLDGYFDHWGQGTLVTVSAAKTTPPSVYPLAPGSAAQTNSMVTLGCLVKGYFPEPVTVTWNSGSLSSGVHTFPAVLQSDLYTLSSSVTVPSSTWPSETVTCNVAHPASSTKVDKKIVPRDCGCKPCICTVPEVSSVFIFPPKPKDVLTITLTPKVTCVVVDISKDDPEVQFSWFVDDVEVHTAQTQPREEQFNSTFRSVSELPIMHQDWLNGKEFKCRVNSAAFPAPIEKTISKTKGRPKAPQVYTIPPPKEQMAKDKVSLTCMITDFFPEDITVEWQWNGQPAENYKNTQPIMDTDGSYFVYSKLNVQKSNWEAGNTFTCSVLHEGLHNHHTEKSLSHSPG
light: DIVMTQSPASLSASVGETVTITCRASENIYSYLAWYQQKQGKSPQLLVYNARTLAEGVPSRFSGSGSGTQFSLKINSLQPEDFGSFYCQHHYGTPWTFGGGTKLEIKADAAPTVSIFPPSSEQLTSGGASVVCFLNNFYPKDINVKWKIDGSERQNGVLNSWTDQDSKDSTYSMSSTLTLTKDEYERHNSYTCEATHKTSTSPIVKSFNRNEC
notes: also called MA-I
As for B3, the response in experiment [1] was half-maximal at 0.0011 µg/mL (EC50). In addition, in experiment [2], the IC50 is 1.52 µg/mL.

B4: MA-Ⅱ鼠源抗TSLP单克隆抗体 (murine IgG1/Ck) (antibody, V domains shown)
VH: QVKLQQSGAELVKPGASVKMSCKASGYTFTTYWMHWVKQRPGQGLEWIGVIDPSDSYITYNQKFKGKATLTVDTSSSTAYMQLSSLTSEDSAVYYCTRSLDGYFDYWGQGTLVTVSA
VL: DIVLTQSPASLSASVGETVTITCRASENIYSYLAWYQQKQGKSPQLLVYNAKTLAEGVPSRFSGSGSGTQFSLKINSLQPEDFGSYYCQHHYGTPWTFGGGTKLEIKA
In experiment [1], B4 registered a 50% effective concentration (EC50) of 0.00204 µg/mL. Also, the half-maximal inhibitory concentration (IC50) in experiment [2] amounted to 15.6 µg/mL.

B5: 人源化抗TSLP单克隆抗体HA-Ⅱ (antibody, human IgG1, kappa, L234A L235A, V domains shown)
VH: QVQLVQSGAEVKKPGASVKVSCKASGYTFTSYWMHWVRQAPGQGLEWIGLIDPSDSDTTYNQKFKGRATLTVDTSTSTAYMELSSLRSEDTAVYYCSRSLDGYFDHWGQGTLVTVSS
VL: DIVMTQSPSSLSASVGDRVTITCRASENIYSYLAWYQQKPGKAPKLLVYNARTLAEGVPSRFSGSGSGTDFTLTISSLQPEDFATYYCQHHYGTPWTFGGGTKVEIKR
notes: Humanized from MA-Ⅰ
The molecule B5 yielded an EC50 in experiment [3] of 0.0508 µg/mL. Further, the binding result in experiment [4] was “no binding (tested: 16μg/ml)”.

B6: 人源化抗TSLP单克隆抗体HA-Ⅲ (antibody, human IgG1, kappa, L234A L235A)
heavy: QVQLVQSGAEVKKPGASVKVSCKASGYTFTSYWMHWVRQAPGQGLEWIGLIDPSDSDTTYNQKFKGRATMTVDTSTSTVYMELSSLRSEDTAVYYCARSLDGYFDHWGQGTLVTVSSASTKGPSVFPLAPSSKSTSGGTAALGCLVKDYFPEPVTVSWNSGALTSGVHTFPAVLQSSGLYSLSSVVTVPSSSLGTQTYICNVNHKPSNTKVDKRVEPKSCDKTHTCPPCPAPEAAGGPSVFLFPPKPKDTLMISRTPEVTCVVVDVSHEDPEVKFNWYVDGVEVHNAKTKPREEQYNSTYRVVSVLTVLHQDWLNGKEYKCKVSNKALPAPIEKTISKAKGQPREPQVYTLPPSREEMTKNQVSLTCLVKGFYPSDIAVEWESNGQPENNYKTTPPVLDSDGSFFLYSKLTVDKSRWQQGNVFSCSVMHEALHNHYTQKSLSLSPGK
light: DIQMTQSPSSLSASVGDRVTITCRASENIYSYLAWYQQKPGKAPKLLVYNARTLAEGVPSRFSGSGSGTDFTLTISSLQPEDFATYYCQHHYGTPWTFGGGTKVEIKRTVAAPSVFIFPPSDEQLKSGTASVVCLLNNFYPREAKVQWKVDNALQSGNSQESVTEQDSKDSTYSLSSTLTLSKADYEKHKVYACEVTHQGLSSPVTKSFNRGEC
notes: Humanized from MA-Ⅰ
In the case of B6, the midpoint of the response in experiment [3], the EC50, lay at 0.0892 µg/mL. Also, the binding result in experiment [4] was “no binding (tested: 16μg/ml)”.

B7: 人源化抗TSLP单克隆抗体HA-Ⅰ (antibody, human IgG1, kappa, L234A L235A, V domains shown)
VH: QVQLVQSGAEVKKPGASVKVSCKASGYTFTSYWMHWVRQAPGQGLEWIGLIDPSDSDTTYNQKFKGRATLTVDTSTSTAYMELSSLRSEDTAVYYCSRSLDGYFDHWGQGTLVTVSS
VL: DIVMTQSPSSLSASVGDRVTITCRASENIYSYLAWYQQKPGKSPKLLVYNARTLAEGVPSRFSGSGSGTDFTLTISSLQPEDFATYYCQHHYGTPWTFGGGTKVEIKR
notes: Humanized from MA-Ⅰ; also called HA-1
Turning to B7, the half-maximal effective concentration (EC50) in experiment [3] turned out to be 0.0273 µg/mL. Moreover, in experiment [4], the binding result was “no binding (tested: 16μg/ml)”.

B8: 人源化抗TSLP单克隆抗体HA-Ⅳ (antibody, human IgG1, kappa, L234A L235A)
heavy: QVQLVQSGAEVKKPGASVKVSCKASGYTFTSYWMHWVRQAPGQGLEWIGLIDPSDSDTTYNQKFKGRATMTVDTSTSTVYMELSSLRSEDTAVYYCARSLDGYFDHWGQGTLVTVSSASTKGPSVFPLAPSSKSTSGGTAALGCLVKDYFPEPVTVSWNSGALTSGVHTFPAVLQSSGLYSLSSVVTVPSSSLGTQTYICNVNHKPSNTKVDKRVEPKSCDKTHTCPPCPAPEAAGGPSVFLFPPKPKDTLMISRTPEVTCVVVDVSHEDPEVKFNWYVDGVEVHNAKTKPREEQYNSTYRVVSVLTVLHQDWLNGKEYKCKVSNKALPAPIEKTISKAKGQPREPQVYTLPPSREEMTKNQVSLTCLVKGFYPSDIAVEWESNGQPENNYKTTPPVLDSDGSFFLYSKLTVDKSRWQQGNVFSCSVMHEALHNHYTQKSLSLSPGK
light: DIVMTQSPSSLSASVGDRVTITCRASENIYSYLAWYQQKPGKAPKLLVYNARTLAEGVPSRFSGSGSGTDFTLTISSLQPEDFATYYCQHHYGTPWTFGGGTKVEIKRTVAAPSVFIFPPSDEQLKSGTASVVCLLNNFYPREAKVQWKVDNALQSGNSQESVTEQDSKDSTYSLSSTLTLSKADYEKHKVYACEVTHQGLSSPVTKSFNRGEC
notes: Humanized from MA-Ⅰ
Regarding B8, the EC50 in experiment [3] amounted to 0.0508 µg/mL. Further, in experiment [4], the binding result was “no binding (tested: 16μg/ml)”.

B9: 嵌合抗体CA-Ⅰ (antibody, human IgG1, kappa, L234A L235A)
heavy: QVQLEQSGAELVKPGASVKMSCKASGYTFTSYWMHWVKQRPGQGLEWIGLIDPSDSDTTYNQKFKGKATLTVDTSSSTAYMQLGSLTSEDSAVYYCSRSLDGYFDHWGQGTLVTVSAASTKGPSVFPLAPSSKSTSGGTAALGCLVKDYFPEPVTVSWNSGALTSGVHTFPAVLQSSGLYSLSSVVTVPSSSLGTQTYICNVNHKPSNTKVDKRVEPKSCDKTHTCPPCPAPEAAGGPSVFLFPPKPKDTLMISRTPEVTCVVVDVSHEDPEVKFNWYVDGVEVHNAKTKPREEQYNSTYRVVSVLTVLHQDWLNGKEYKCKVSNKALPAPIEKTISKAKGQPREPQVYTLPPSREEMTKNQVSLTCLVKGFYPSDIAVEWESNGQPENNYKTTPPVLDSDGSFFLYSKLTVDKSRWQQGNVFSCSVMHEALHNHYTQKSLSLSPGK
light: DIVMTQSPASLSASVGETVTITCRASENIYSYLAWYQQKQGKSPQLLVYNARTLAEGVPSRFSGSGSGTQFSLKINSLQPEDFGSFYCQHHYGTPWTFGGGTKLEIKRTVAAPSVFIFPPSDEQLKSGTASVVCLLNNFYPREAKVQWKVDNALQSGNSQESVTEQDSKDSTYSLSSTLTLSKADYEKHKVYACEVTHQGLSSPVTKSFNRGEC
notes: also called chimeric antibody CA-I
On to B9, for which the EC50 in experiment [5] was 0.0131 µg/mL.
